This note sets out measurements from patent US8685665 (CHEMO SERO THERAPEUTIC RESEARCH INSTITUTE, dated 2014).

B1: ADAMTS-13W688X mutant R370A (protein)
chain: AAGGILHLELLVAVGPDVFQAHQEDTERYVLTNLNIGAELLRDPSLGAQFRVHLVKMVILTEPEGAPNITANLTSSLLSVCGWSQTINPEDDTDPGHADLVLYITRFDLELPDGNRQVRGVTQLGGACSPTWSCLITEDTGFDLGVTIAHEIGHSFGLEHDGAPGSGCGPSGHVMASDGAAPRAGLAWSPCSRRQLLSLLSAGRARCVWDPPRPQPGSAGHPPDAQPGLYYSANEQCRVAFGPKAVACTFAREHLDMCQALSCHTDPLDQSSCSRLLVPLLDGTECGVEKWCSKGACRSLVELTPIAAVHGRWSSWGPRSPCSRSCGGGVVTRRRQCNNPRPAFGGRACVGADLQAEMCNTQACEKTQLEFMSQQCARTDGQPLRSSPGGASFYHWGAAVPHSQGDALCRHMCRAIGESFIMKRGDSFLDGTRCMPSGPREDGTLSLCVSGSCRTFGCDGRMDSQQVWDRCQVCGGDNSTCSPRKGSFTAGRAREYVTFLTVTPNLTSVYIANHRPLFTHLAVRIGGRYVVAGKMSISPNTTYPSLLEDGRVEYRVALTEDRLPRLEEIRIWGPLQEDADIQVYRRYGEEYGNLTRPDITFTYFQPKPRQAWVW
B2: ADAMTS-13W688X mutant R659A (protein)
chain: B1 chain with A296R, R585A
B3: ADAMTS-13W688X mutant R568A (protein)
chain: B1 chain with A296R, R494A
B4: ADAMTS-13W688X mutant R326A (protein)
chain: B1 chain with R252A, A296R
B5: ADAMTS-13W688X mutant R349A (enzyme, human, UniProt Q76LX8 75-688, looked up)
chain: B1 chain with R275A, A296R
notes: Disintegrin-like domain mutant; also called R349(11); not shown: C-terminal FLAG tag
B6: ADAMTS-13W688X mutant R498A (enzyme, human, UniProt Q76LX8 75-688, looked up)
chain: B1 chain with A296R, R424A
notes: Cysteine-rich domain mutant; also called R498(29); not shown: C-terminal FLAG tag
B7: ADAMTS-13W688X mutant D635A (protein)
chain: B1 chain with A296R, D561A
B8: ADAMTS-13W688X mutant E634A (protein)
chain: B1 chain with A296R, E560A
B9: ADAMTS-13W688X mutant D343A (enzyme, human, UniProt Q76LX8 75-688, looked up)
chain: B1 chain with D269A, A296R
notes: Disintegrin-like domain mutant; also called D343(10); not shown: C-terminal FLAG tag
B10: ADAMTS-13W688X mutant E327A (enzyme, human, UniProt Q76LX8 75-688, looked up)
chain: B1 chain with E253A, A296R
notes: Disintegrin-like domain mutant; also called E327(7); E327 mutant; not shown: C-terminal FLAG tag
B11: ADAMTS-13W688X mutant R488A (enzyme, human, UniProt Q76LX8 75-688, looked up)
chain: B1 chain with A296R, R414A
notes: Cysteine-rich domain mutant; also called R488(26); not shown: C-terminal FLAG tag
B12: ADAMTS-13W688X mutant R660A (enzyme, human, UniProt Q76LX8 75-688, looked up)
chain: B1 chain with A296R, R586A
notes: Spacer domain mutant; also called R660(68); not shown: C-terminal FLAG tag
B13: ADAMTS-13W688X mutant D480A (enzyme, human, UniProt Q76LX8 75-688, looked up)
chain: B1 chain with A296R, D406A
notes: Cysteine-rich domain mutant; also called D480(24); not shown: C-terminal FLAG tag

Residue numbers refer to the chain shown, from its start. In names and notes the source's numbering stands.

One series has as its target T1, FRETS-VWF73, P04275.
T1 chain: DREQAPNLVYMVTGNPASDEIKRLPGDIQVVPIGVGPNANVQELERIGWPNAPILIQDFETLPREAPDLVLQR
Test: not given
B1: the “cleaving activity to FRETS-VWF73, relative activity against wild type W688X” value was “the elevated enzymatic activity was observed”.
As to B2, the “cleaving activity to FRETS-VWF73, relative activity against wild type W688X” value is given as “the elevated enzymatic activity was observed”.
Still for that read-out and setting: for B3 the value was “the elevated enzymatic activity was observed”.
B4: the “cleaving activity to FRETS-VWF73, relative activity against wild type W688X” value is listed as “the elevated enzymatic activity was observed”.
With B5, the “cleaving activity to FRETS-VWF73, relative activity against wild type W688X” value is given as “led to the significantly reduced enzyme activity”.
In the case of B6, the “cleaving activity to FRETS-VWF73, relative activity against wild type W688X” value was “led to the significantly reduced enzyme activity”.

Another series has as its target immunoglobulin G (IgG) fractions isolated from acquired TTP patients.
Test: not given
For B7, the “cleaving activity to FRETS-VWF73 per 1 min (ΔFU/min) with and without patient antibodies” value was “depending on patient antibody, K608A, E634A and D635A had a sufficient enzymatic activity”.
Regarding B8, the “cleaving activity to FRETS-VWF73 per 1 min (ΔFU/min) with and without patient antibodies” value is “depending on patient antibody, K608A, E634A and D635A had a sufficient enzymatic activity”.

Another series deals with T2, von Willebrand factor derived from human plasma (human, UniProt P04275 764-2813).
T2 construct: mature; also called VWF; natural substrate VWF
Put plainly: ELISA, plasma VWF immobilized on plate, relative to wild type W688X. As to the method: Each of the purified mutants of Example 3 was evaluated for their binding ability to VWF derived from human plasma immobilized on ELISA plate as described in Non-patent reference 8. The concentration was normalized by sandwich ELISA using the anti-human ADAMTS-13 rabbit polyclonal antibody and an HRP labeled form of the anti-FLAGM2 murine monoclonal antibody (SIGMA CORPORATION) as described above and the VWF binding ability per unit concentration was quantified. Finally, the mutants were evaluated for a relative activity as compared to the specific activity of wild type W688X with no alanine substitution, the specific activity of which is 1.
On the technique in general: ELISA stands for enzyme-linked immunosorbent assay.
Turning to B9, the binding result is “binds”.
On the same count and under the same terms, for B5 the value was “binds”.
Still for that read-out and setting: for B10 the value was “binds”; for B11, “binds”; for B6, “binds”.
For the molecule B12, the binding result is on record as “binds”.
On the same count and under the same terms, for B13 the value was “binds”.
